Reference: patent publication US20150086555A1

B1: TCN-549 (5092_P04) (antibody, V domains shown)
VH: QVQLVQSGAEVKKPGASVKVSCKASGYTFTGYYMHWVRQAPGQGLEWMGWINPNSGDTNYAQKFQGRVTMTRDTSITTAYMELSSLRSDDTAVYYCARDSPYSSSWSFFDYWGQGPLVTVSS
VL: not shown
B2: TCN-558 (5248_H10b) (antibody, V domains shown)
VH: QVQLVQSGSEVKKPGTSVKVSCTASGSVFTNYGISWVRQAPGQGLEWMGGIIPLFGAAKYAQKFQGRVTITADESTKTVYMELSRLTSKDTAIYFCAKAPRVYEYYFDQWGQGTPVTVSS
VL: EIVMTQFPATLSVSPGERVTLSCRASQSVSNNLAWYQQKPGQPPRLLIYDASTRATGVPAKFSGTGSGTEFTLSISSLQSEDFAVYYCQQYHNWPPSYSFGLGTKLEIK

Key:
Conditions in all cases: remark: other sources report otherwise
[1] = target: recombinant homotrimeric HA A/Hong Kong/1073/99 H9N2 (Influenza A virus A/Hong Kong/1073/99 (H9N2)); assay: protein microarray, purified IgG, trimeric HA
[2] = target: recombinant homotrimeric HA A/duck/Yangzhou/02/05 H8N4 (Influenza A virus A/duck/Yangzhou/02/2005(H8N4)); assay: protein microarray, purified IgG, trimeric HA
[3] = target: recombinant homotrimeric HA A/Japan/305/57 H2N2 (Influenza A virus A/Japan/305/1957(H2N2)); assay: protein microarray, purified IgG, trimeric HA
[4] = target: recombinant homotrimeric HA A/Netherlands/219/03 H7N7 (Influenza A virus A/Netherlands/219/03(H7N7)); assay: protein microarray, purified IgG, trimeric HA
[5] = target: recombinant homotrimeric HA A/California/4/09 H1N1 (Influenza A virus A/California/04/2009(H1N1)); assay: protein microarray, purified IgG, trimeric HA
[6] = target: recombinant homotrimeric HA A/northern shoveler/California/HKWF115/07 H6N4 (Influenza A virus A/northern shoveler/California/HKWF115/2007(H6N1)); assay: protein microarray, purified IgG, trimeric HA
[7] = target: recombinant homotrimeric HA A/Egypt/3300-NAMRU3/08 H5N1 (Influenza A virus A/Egypt/3300-NAMRU3/2008(H5N1)); assay: protein microarray, purified IgG, trimeric HA
[8] = target: recombinant homotrimeric HA A/South Carolina/1/18 H1N1 (Influenza A virus A/South Carolina/1/18 (H1N1)); assay: protein microarray, purified IgG, trimeric HA
[9] = target: recombinant homotrimeric HA A/Wisconsin/67/05 H3N2 (Influenza A virus A/Wisconsin/67/2005(H3N2)); assay: protein microarray, purified IgG, trimeric HA
[10] = target: recombinant homotrimeric HA A/chicken/Vietnam/NCVD-016/08 H5N1 (Influenza A virus A/chicken/Vietnam/NCVD-016/2008(H5N1)); assay: protein microarray, purified IgG, trimeric HA
[11] = target: recombinant soluble homotrimeric HA of A/northern shoveler/California/HKWF115/07 (H6) (Influenza A virus A/northern shoveler/California/HKWF115/2007(H6N1)); assay: HA microarray, BCC supernatant
[12] = target: recombinant soluble homotrimeric HA of A/Solomon Islands/3/06 (H1N1) (Influenza A virus A/Solomon Islands/3/2006(H1N1)); assay: HA microarray, BCC supernatant
[13] = target: recombinant soluble homotrimeric HA of A/chicken/Vietnam/NCVD-016/08 (H5N1) (Influenza A virus A/chicken/Vietnam/NCVD-016/2008(H5N1)); assay: HA microarray, BCC supernatant
[14] = target: recombinant soluble homotrimeric HA of A/Wisconsin/67/05 (H3N2) (Influenza A virus A/Wisconsin/67/2005(H3N2)); assay: HA microarray, BCC supernatant
[15] = target: recombinant soluble homotrimeric HA of A/California/4/09 (H1N1) (Influenza A virus A/California/04/2009(H1N1)); assay: HA microarray, BCC supernatant
[16] = target: recombinant soluble homotrimeric HA of A/Netherlands/219/03 (H7N7) (Influenza A virus A/Netherlands/219/03(H7N7)); assay: HA microarray, BCC supernatant
[17] = target: recombinant soluble homotrimeric HA of A/Japan/305/57 (H2N2) (Influenza A virus A/Japan/305/1957(H2N2)); assay: HA microarray, BCC supernatant
[18] = target: recombinant soluble homotrimeric HA, A/northern shoveler/California/HKWF115/07 H6N4 (Influenza A virus A/northern shoveler/California/HKWF115/2007(H6N1)); assay: microarray, transfection SN IgG, trimeric HA
[19] = target: recombinant soluble homotrimeric HA, A/Netherlands/219/03 H7N7 (Influenza A virus A/Netherlands/219/03(H7N7)); assay: microarray, transfection SN IgG, trimeric HA
[20] = target: recombinant soluble homotrimeric HA, A/South Carolina/1/18 H1N1 (Influenza A virus A/South Carolina/1/18 (H1N1)); assay: microarray, transfection SN IgG, trimeric HA
[21] = target: recombinant soluble homotrimeric HA, A/Solomon Islands/3/06 H1N1 (Influenza A virus A/Solomon Islands/3/2006(H1N1)); assay: microarray, transfection SN IgG, trimeric HA
[22] = target: recombinant soluble homotrimeric HA, A/California/4/09 H1N1 (Influenza A virus A/California/04/2009(H1N1)); assay: microarray, transfection SN IgG, trimeric HA
[23] = target: recombinant soluble homotrimeric HA, A/swine/Ontario/01911-2/99 H4N6 (Influenza A virus A/Swine/Ontario/01911-2/99 (H4N6)); assay: microarray, transfection SN IgG, trimeric HA
[24] = target: recombinant soluble homotrimeric HA, A/duck/Yangzhou/02/05 H8N4 (Influenza A virus A/duck/Yangzhou/02/2005(H8N4)); assay: microarray, transfection SN IgG, trimeric HA
[25] = target: recombinant soluble homotrimeric HA, A/Egypt/3300-NAMRU3/08 H5N1 (Influenza A virus A/Egypt/3300-NAMRU3/2008(H5N1)); assay: microarray, transfection SN IgG, trimeric HA
[26] = target: recombinant soluble homotrimeric HA, A/Wisconsin/67/05 H3N2 (Influenza A virus A/Wisconsin/67/2005(H3N2)); assay: microarray, transfection SN IgG, trimeric HA
[27] = target: recombinant soluble homotrimeric HA, A/chicken/Vietnam/NCVD-016/08 H5N1 (Influenza A virus A/chicken/Vietnam/NCVD-016/2008(H5N1)); assay: microarray, transfection SN IgG, trimeric HA
[28] = target: recombinant soluble homotrimeric HA, A/Japan/305/57 H2N2 (Influenza A virus A/Japan/305/1957(H2N2)); assay: microarray, transfection SN IgG, trimeric HA
[29] = target: recombinant homotrimeric HA A/Hong Kong/2108/03 H9N2 (Influenza A virus A/HK/2108/2003(H9N2)); assay: protein microarray, purified IgG, trimeric HA
[30] = target: recombinant homotrimeric HA A/Solomon Islands/3/06 H1N1 (Influenza A virus A/Solomon Islands/3/2006(H1N1)); assay: protein microarray, purified IgG, trimeric HA

| Binder | Trimeric HA Binding: RLU [1] [RLU] | Trimeric HA Binding: RLU [3] [RLU] | Trimeric HA Binding: RLU [4] [RLU] | Trimeric HA Binding: RLU [5] [RLU] | Trimeric HA Binding: RLU [6] [RLU] | Trimeric HA Binding: RLU [7] [RLU] | Trimeric HA Binding: RLU [8] [RLU] | Trimeric HA Binding: RLU [9] [RLU] | Trimeric HA Binding: RLU [10] [RLU] | Trimeric HA Binding: RLU [18] [RLU] | Trimeric HA Binding: RLU [19] [RLU] | Trimeric HA Binding: RLU [20] [RLU] | Trimeric HA Binding: RLU [21] [RLU] | Trimeric HA Binding: RLU [22] [RLU] | Trimeric HA Binding: RLU [23] [RLU] | Trimeric HA Binding: RLU [25] [RLU] | Trimeric HA Binding: RLU [26] [RLU] | Trimeric HA Binding: RLU [27] [RLU] | Trimeric HA Binding: RLU [28] [RLU] | further results |
| --- | --- | --- | --- | --- | --- | --- | --- | --- | --- | --- | --- | --- | --- | --- | --- | --- | --- | --- | --- | --- |
| B1 | 450 | 413 | 193 | 196 | 112 | 6920 | 72 | 27200 | 177 | 996 | 8480 | 2340 | 640 | 622 | 1880 | 18600 | 51600 | 1600 | 1080 | Trimeric HA Binding: RLU [2]: 166 RLU; Trimeric HA Binding: RLU [11]: 1100 RLU; Trimeric HA Binding: RLU [12]: 284 RLU; Trimeric HA Binding: RLU [13]: 498 RLU; Trimeric HA Binding: RLU [14]: 30900 RLU; Trimeric HA Binding: RLU [15]: 338 RLU; Trimeric HA Binding: RLU [16]: 1130 RLU; Trimeric HA Binding: RLU [17]: 387 RLU; Trimeric HA Binding: RLU [24]: 9450 RLU |
| B2 | 4380 | 27200 | 623 | 24700 | 12300 | 25500 | 13600 | 320 | 9730 | 29400 | 5840 | 40700 | 36100 | 20200 | 10000 | 21900 | 26600 | 33400 | 34400 | Trimeric HA Binding: RLU [29]: 257 RLU; Trimeric HA Binding: RLU [30]: 22000 RLU |
